Assay results: paper doi:10.1101/2021.10.10.463828 (bioRxiv, 2021)
Blank lines part the entries; values can stand above or below the molecule they belong to.

B1: Tim17 with an affinity tag, overexpressed (natural protein)
chain: MSADHSRDPCPIVILNDFGGAFAMGAIGGVVWHGIKGFRNSPLGERGSGAMSAIKARAPVLGGNFGVWGGLFSTFDCAVKAVRKREDPWNAIIAGFFTGGALAVRGGWRHTRNSSITCACLLGVIEGVGLMFQRYAAWQAKPMAPPLPEAPSSQPLQA
modifications: disulfide bond between Cys10 and Cys77
B2: Tim23, overexpressed (natural protein)
chain: MSWLFGDKTPTDDANAAVGGQDTTKPKELSLKQSLGFEPNINNIISGPGGMHVDTARLHPLAGLDKGVEYLDLEEEQLSSLEGSQGLIPSRGWTDDLCYGTGAVYLLGLGIGGFSGMMQGLQNIPPNSPGKLQLNTVLNHITKRGPFLGNNAGILALSYNIINSTIDALRGKHDTAGSIGAGALTGALFKSSKGLKPMGYSSAMVAAACAVWCSVKKRLLEK

Assays:
[1] = target: Tim17 with an affinity tag, overexpressed (S. cerevisiae) (UniProt P39515); test: cryo-EM structure
Tim23, overexpressed [2] = target: B2; test: cryo-EM structure
Tim23, overexpressed [3] = target: B2; test: pull-down
[4] = target: B1; test: cryo-EM structure

stoichiometry N [1]: 1
stoichiometry N (Tim23, overexpressed [2]): 1
Molecule: Tim44, overexpressed (natural protein)

Molecule: B1
binding result (Tim23, overexpressed [3]): binds

Molecule: B2
stoichiometry N [4]: 1
